Patent publication US6406872

B1: UNC-49C GABA receptor subunit (receptor)
chain: QDEDSHINTQLLSSVLDRLTNRTTYDKRLRPRYGEKPVDVGITIHVSSISAVSEVDMDFTLDFYMRQTWQDPRLAFGSLDLGLSKEIDSLTVGVDYLDRLWKPDTFFPNEKKSFFHLATTHNSFLRIEGDGTVYTSQRLTVTATCPMDLKLFPMDSQHCKLEIESYAYSTAEIEYKWCTSKEPNCSTAVKADANIELSSYKFTKICQKRTLASTSSGTYSRLRVSFIFDRDSGFYFLQIFFPASLVVVLSWISFWINRDSAPSRTLIGTMTVLTETHLMTGTNRRLPPVAYVKAVDVFLGFCYLLVILALIEYACVAYSKKKNEDRRRREKKTEHKPAPPTPDILHDVRLAECTCNAAPTSIIAVIKQSNRFCVSHSHIDIVSRAAFPLVFILFNTLFWLILLYKSKRLPYISEHEGDRCDAPDLH
B2: UNC-49B GABA receptor subunit (UNC-49B.1 isoform) (receptor)
chain: QDEDSHINTQLLSSVLDRLTNRTTYDKRLRPRYGEKPVDVGITIHVSSISAVSEVDMDFTLDFYMRQTWQDPRLAFGSLDLGLSKEIDSLTVGVDYLDRLWKPDTFFPNEKKSFFHLATTHNSFLRIEGDGTVYTSQRLTVTATCPMDLKLFPMDSQHCKLEIESYGYETKDIDYYWGKKRTDLEITAVKFDTFQLPQFQPTLYFVNTTKAETSSGKYVRLALEVILVRNMGFYTMNIVIPSILIVTISWVSFWLNREASPARVGLGVTTVLTMTTLITTTNNSMPKVSYVKGLDVFLNFCFVMVFASLLEYAIVSYMNKRLVLRREKRRKAAEQQQRNEMPMFNASPKAANNNADLYFAGHNSSMNPLMEIPENCDCRTIPMMQHPRLVTDGAHTLWPAPFARPKKASKTCCQRWTPAKIDKLSRYGFPLSFSIFNIVYWLYMKYLSLNSSDKIQENDKWQQIH

Tests used:
[1] = molecular target: B2; assay: cell-based or functional assay
[2] = molecular target: the molecule itself; assay: cell-based or functional assay

EC50 (µM) of GABA, two-electrode voltage clamp, Xenopus oocytes co-injected with UNC-49B and UNC-49C RNA [1] [µM]	Binder	EC50 (µM) of GABA, two-electrode voltage clamp, Xenopus oocytes injected with UNC-49B.1 mRNA alone [2] [µM]
108	B1	
	B2	43.7
